Reference: patent US20230044381A1 (GUANGDONG FEIPENG PHARMACEUTICAL, published 2023)
Values belong to the binder of their own block, whether it stands above or below them.

Columns and labels:
[1] = target: T1, monkey PD1 on CHO cells (CHO-cynoPD1) (monkey); assay: flow cytometry on CHO-cynoPD1 cells
T1 construct: whole, on cells
Protocol: (§1) In order to evaluate binding of the anti-PD-1 mouse monoclonal antibody to CHO-hPD1, 2×10⁵ CHO-hPD1 cells and the anti-PD-1 mouse monoclonal antibody that diluted in a concentration gradient (the initial concentration was […], 3-fold serial dilution) were added to a 96-well plate. then it was incubated at 4° C. for 30 minutes. After the cells were washed once with a buffer (PBS containing 3% bovine serum albumin (BSA)), PE-labeled anti-mouse IgG(Fc) Ab (Biolegend) fluorescent secondary antibody was added, it was incubated at 4° C. for another 30 minutes. the cells were washed once with the buffer and resuspended in PBS, and then cell suspension was analyzed through flow cytometry by CytoFlex (Beckman flow cytometer), the amount of the antibody bound to the cells was measured according to the mean fluorescence intensity (MFI); the same method was used to evaluate binding of anti-PD-1 mouse monoclonal antibody to a CHO-cyno cell, and a CHO-mousePD1 (sometimes abbreviated as “CHO-mPD1” in the present invention) cell.

[2] = target: T2, human PD-1 on the cell surface (CHO-hPD1 cells; PHA-activated human PBMC) (human, UniProt Q15116 25-288); assay: flow cytometry on CHO-hPD1 cells
T2 construct: whole, on cells; the assay field tells which; also called CHO-PD1
T2 sequence (Q15116 25-288): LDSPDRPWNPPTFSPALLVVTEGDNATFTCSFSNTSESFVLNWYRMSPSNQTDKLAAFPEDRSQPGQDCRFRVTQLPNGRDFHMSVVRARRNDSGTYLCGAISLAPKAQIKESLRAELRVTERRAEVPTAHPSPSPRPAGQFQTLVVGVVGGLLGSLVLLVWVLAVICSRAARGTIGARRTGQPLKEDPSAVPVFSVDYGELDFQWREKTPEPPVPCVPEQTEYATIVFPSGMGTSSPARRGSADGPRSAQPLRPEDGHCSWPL
Protocol: as §1

Human CD28-hFc [3] = target: T3, Human CD28-hFc (human, UniProt P10747 19-152); assay: ELISA, antigen coated at 1 µg/ml
T3 construct: Bought (ACRO); also called CD28 (ACRO)
T3 sequence (P10747 19-152): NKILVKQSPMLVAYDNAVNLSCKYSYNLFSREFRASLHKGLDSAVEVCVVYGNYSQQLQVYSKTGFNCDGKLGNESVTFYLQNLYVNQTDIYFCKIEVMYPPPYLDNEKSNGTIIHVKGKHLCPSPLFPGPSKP
Protocol: (§2) To verify the specificity of the antibody binding to PD-1, the binding assay of anti-PD-1 mouse monoclonal antibody with four different CD28 family member proteins was conducted. […] Anti-mouse IgG coupled with peroxidase (HRP) was used as a secondary antibody (Sigma). The color was developed by TMB, and after reaction termination, the absorbance was read by a microplate reader.

Human ICOS-hFc [4] = target: T4, Human ICOS-hFc (human, UniProt Q9Y6W8 21-140); assay: ELISA, antigen coated at 1 µg/ml
T4 construct: Bought (ACRO); also called ICOS (ACRO)
T4 sequence (looked up): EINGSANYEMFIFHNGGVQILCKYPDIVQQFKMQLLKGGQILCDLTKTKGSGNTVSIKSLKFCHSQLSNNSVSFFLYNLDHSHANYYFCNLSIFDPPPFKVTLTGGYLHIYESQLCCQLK
Protocol: as §2

Human CTLA4-hFc [5] = target: T5, Human CTLA4-hFc (human, UniProt P16410 37-162); assay: ELISA, antigen coated at 1 µg/ml
T5 construct: Bought (ACRO); also called CTLA-4 (ACRO)
T5 sequence (looked up): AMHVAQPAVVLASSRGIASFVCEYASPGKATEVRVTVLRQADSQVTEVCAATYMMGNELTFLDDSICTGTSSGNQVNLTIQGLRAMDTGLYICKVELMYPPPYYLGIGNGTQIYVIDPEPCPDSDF
Protocol: as §2

[6] = target: T2, human PD-1 on the cell surface …; assay: flow cytometry, blocking of PD-L1-hFc (3 µg/ml) on CHO-hPD1 cells, mode 1 (ligand added first)
Protocol: (§3) The ability of the anti-PD-1 mouse monoclonal antibody to block the binding of the ligand to CHO-hPD1 cells was analyzed by a flow cytometer.
(§4) The plate was centrifuged at 300 g for 5 minutes, cells were washed once with a buffer, a PE-labeled goat anti-human IgG fluorescent antibody (Biolegend) was added, and incubated at 4° C. for 30 minutes. After the cells were washed once by centrifugation, the cells were resuspended in PBS, and then analyzed by a Cyto Flex flow cytometer, to detect the amount of the ligand protein bound to the cells, and the IC₅₀ value of the PD-1 antibody blocking was calculated.

[7] = target: T2, human PD-1 on the cell surface …; assay: flow cytometry, blocking of PD-L2-hFc (3 µg/ml) on CHO-hPD1 cells, mode 2 (antibody added first)
Protocol: as §3, §4

[8] = target: T2, human PD-1 on the cell surface …; assay: flow cytometry, blocking of PD-L1-hFc (3 µg/ml) on CHO-hPD1 cells, mode 2 (antibody added first)
Protocol: as §3, §4

[9] = target: T2, human PD-1 on the cell surface …; assay: flow cytometry on PHA-activated human PBMC
Protocol: After PBMC was obtained from fresh human peripheral blood by a lymphatic separation fluid gradient centrifugation method, the density was adjusted to 1×10⁶ cells/ml and then inoculated into T75. At the same time, PHA-L (Sigma) at a final concentration of 1 μg/ml was added to stimulate lymphocyte proliferation. After standing in an incubator supplied with 37° C. and 5% CO₂ for 3 days, cell suspension was taken out and centrifuged to remove the supernatant. Cells were resuspended in a buffer (PBS containing 3% BSA), and added into a 96-well U-shaped plate at a density of 2*10⁵ cells/well. And then the anti-PD1 antibody that prepared for a total of 10 concentration gradients (started from 30 μg/ml, diluted in a 3-fold gradient) was added. After incubation at 4° C. for 30 minutes, the plate was centrifuged at 300 g for 5 minutes, cells were washed once with the buffer, A PE-labeled goat anti-human IgG fluorescent antibody (Biolegend) was added, and incubated at 4° C. for 30 minutes; after incubation, the cells were washed once by centrifugation resuspended in PBS, and analyzed by a CytoFlex flow cytometer, to detect the amount of the antibody bound to PBMC.

Human PD-1-hFc = target: T6, Human PD-1-hFc (human, UniProt Q15116 25-167); assay: ELISA, antigen coated at 1 µg/ml, antibody 10 µg/ml
T6 construct: Bought (ACRO); also called PD-1 (ACRO)
T6 sequence (Q15116 25-167): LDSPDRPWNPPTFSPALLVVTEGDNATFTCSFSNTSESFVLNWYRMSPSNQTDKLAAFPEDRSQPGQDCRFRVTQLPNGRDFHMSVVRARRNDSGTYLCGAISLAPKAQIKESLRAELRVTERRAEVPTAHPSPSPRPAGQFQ
Protocol: as §2

Human CD28-hFc [10] = target: T3, Human CD28-hFc; assay: as above
Protocol: as §2

Human ICOS-hFc [11] = target: T4, Human ICOS-hFc; assay: as above
Protocol: as §2

Human CTLA4-hFc [12] = target: T5, Human CTLA4-hFc; assay: as above
Protocol: as §2

[13] = target: T7, mouse PD1 on CHO cells (CHO-mousePD1) (mouse, UniProt Q02242 25-288); assay: flow cytometry on CHO-mousePD1 cells
T7 construct: whole, on cells; also called CHO-mPD1
T7 sequence (looked up): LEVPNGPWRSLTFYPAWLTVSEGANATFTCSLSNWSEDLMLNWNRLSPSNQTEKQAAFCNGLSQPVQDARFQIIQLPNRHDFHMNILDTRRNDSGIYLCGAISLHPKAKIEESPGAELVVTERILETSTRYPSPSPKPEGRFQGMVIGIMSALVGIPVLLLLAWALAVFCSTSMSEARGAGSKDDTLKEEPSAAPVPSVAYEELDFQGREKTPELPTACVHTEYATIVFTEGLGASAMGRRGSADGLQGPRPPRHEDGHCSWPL
Protocol: as §1

[14] = target: T2, human PD-1 on the cell surface …; assay: flow cytometry, blocking of PD-L2-hFc (3 µg/ml) on CHO-hPD1 cells, mode 1 (ligand added first)
Protocol: as §3, §4

[15] = target: T8, PD-1-his (ACRO) recombinant protein (UniProt Q15116 25-167); assay: BLI (ForteBio Octet), PD-1-his loaded on HIS1K sensor, antibody in solution
T8 construct: Bought (ACRO); loaded on a HIS1K biosensor
T8 sequence (Q15116 25-167 limits assumed): as the sequence (Q15116 25-167) above

EC50 [1]: 0.576 nM
EC50 [2]: 0.583 nM
binding result (Human CD28-hFc [3]): no binding (tested: 10 µg/ml)
binding result (Human ICOS-hFc [4]): no binding (tested: 10 µg/ml)
binding result (Human CTLA4-hFc [5]): no binding (tested: 10 µg/ml)
IC50 [6]: 2.28 nM
IC50 [7]: 3.11 nM
IC50 [8]: 1.4 nM
EC50 [9]: 0.02 nM
OD value (Human PD-1-hFc): 2.46 OD
OD value (Human CD28-hFc [10]): 0.0616 OD
OD value (Human ICOS-hFc [11]): 0.076 OD
OD value (Human CTLA4-hFc [12]): 0.146 OD
binding result [13]: no binding
IC50 [14]: 4.67 nM
Kd [15]: < 0.001 nM
koff [15]: < 1e-07 s⁻¹
kon [15]: 771000 M⁻¹ s⁻¹
B1: PD-1-76-C2 (antibody, V domains shown)
VH: QIQLVQSGPELKKPGETVKISCKASGYTFTNYGMNWVKQAPGKGLKWMGWINTHTGEPTYADDFKGRFAFSLETSASTAYLQIKNLKNEDVATYFCTKEGEGIGFAYWGQGTLVTVSA
VL: DVLMTQTPLSLPVSLGDQASISCRSSQSIVYSNGKTYLEWYLQKPGQSPKLLIYKVSNRFSGVPDRFSGSGSGTDFTLKISRVEAEDLGVYYCFQGSHVPNTFGGGTKLEIKR
notes: Mouse monoclonal antibody from a hybridoma; also called PD-76-C2; PD-1-76-02

EC50 [1]: 0.463 nM
EC50 [2]: 0.739 nM
binding result (Human CD28-hFc [3]): no binding (tested: 10 µg/ml)
binding result (Human ICOS-hFc [4]): no binding (tested: 10 µg/ml)
binding result (Human CTLA4-hFc [5]): no binding (tested: 10 µg/ml)
IC50 [6]: 2.57 nM
IC50 [7]: 3.73 nM
IC50 [8]: 1.55 nM
EC50 [9]: 0.109 nM
OD value (Human PD-1-hFc): 2.12 OD
OD value (Human CD28-hFc [10]): 0.0625 OD
OD value (Human ICOS-hFc [11]): 0.062 OD
OD value (Human CTLA4-hFc [12]): 0.131 OD
binding result [13]: no binding
IC50 [14]: 4.61 nM
Kd [15]: 0.0435 nM
koff [15]: 3.18e-05 s⁻¹
kon [15]: 732000 M⁻¹ s⁻¹
B2: PD-1-112-C2 (antibody, V domains shown)
VH: QVQLQQPGAELVKPGASVKLSCKASGYTFTTYYMYWVKQRPGQGLEWIGGINPSNGGTNFNEKFKSKATLTVDKSSSTAYMQLSSLTSEDSAVYYCTRRDSNYDGGFDYWGQGTTLTVSS
VL: DIVLTQSPASLAVSLGQRATISCRASKSVSTSGYSYMHWYQQKPGQPPKLLIYLAYHLESGVPARFSGSGSGTDFTLNIHPVEEEDAATYYCQHSWELPITFGSGTKLEIKR
notes: Mouse monoclonal antibody from a hybridoma; also called hybridoma clone 112

EC50 [1]: 0.578 nM
EC50 [2]: 0.745 nM
binding result (Human CD28-hFc [3]): no binding (tested: 10 µg/ml)
binding result (Human ICOS-hFc [4]): no binding (tested: 10 µg/ml)
binding result (Human CTLA4-hFc [5]): no binding (tested: 10 µg/ml)
IC50 [6]: 2.22 nM
IC50 [7]: 3.49 nM
IC50 [8]: 1.62 nM
EC50 [9]: 1.03 nM
OD value (Human PD-1-hFc): 2.37 OD
OD value (Human CD28-hFc [10]): 0.0606 OD
OD value (Human ICOS-hFc [11]): 0.0636 OD
OD value (Human CTLA4-hFc [12]): 0.129 OD
binding result [13]: no binding
IC50 [14]: 7.54 nM
Kd [15]: < 0.001 nM
koff [15]: < 1e-07 s⁻¹
kon [15]: 468000 M⁻¹ s⁻¹
B3: PD-1-97-C2 (antibody, V domains shown)
VH: EVKLVESGGGLVKPGGSLKLSCAASGFTFSSYGMSWIRQTPEKRLEWVATISGGGRDSYYPDSMKGRFAISRDNAKNNLYLQMSSLRSEDTALYYCTRQLGPAWFAYWGQGTLVTVSA
VL: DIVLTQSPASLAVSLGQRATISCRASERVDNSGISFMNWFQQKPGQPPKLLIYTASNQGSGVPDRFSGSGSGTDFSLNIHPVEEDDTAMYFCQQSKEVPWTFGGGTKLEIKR
notes: Mouse monoclonal antibody from a hybridoma; also called hybridoma clone 97
